Experimental data: patent publication US20260232827A1, “ANTIBODY-DRUG CONJUGATES TARGETING NAPI2B AND METHODS OF USE” (Zymeworks BC Inc., priority 2023, published 2026)

B1: v29453: "Representative humanized antibody variants ... of the mouse antibody" that specifically binds hNaPi2b (antibody, V domains shown)
VH: QVQLVQSGAEVKKPGASVKMSCKASGFTFTSYNVHWVRQAPGQGLEWIAAISPGNGDLSYAQKFQGRATLTVDRSTSTAYMELSSLRSEDTAVYYCARGRTGMGAVDYWGQGTLVTVSS
VL: DVQMTQSPSSLSASVGDRVTITCRASQDVYSYLNWYQQKPGKAVKLLIYYTSRLQSGVPSRFSGSGSGTDYTLTISSLQPEDFATYYCQQYNIFPWTFGQGTKLEIK
modifications: v29449, v29453, v29457 H4; v29453, v29454, v29455, v29456 L2
B2: v29449: "Representative humanized antibody variants ... of the mouse antibody" that specifically binds hNaPi2b (antibody, V domains shown)
VH: QVQLVQSGAEVKKPGASVKMSCKASGFTFTSYNVHWVRQAPGQGLEWIAAISPGNGDLSYAQKFQGRATLTVDRSTSTAYMELSSLRSEDTAVYYCARGRTGMGAVDYWGQGTLVTVSS
VL: DVQMTQSPSSLSASVGDRVTITCRASQDVYSYLNWYQQKPGKAVKLLIYYTSRLQSGVPSRFSGSGSGTDYTLTISSLQPEDIATYYCQQYNIFPWTFGQGTKLEIK
modifications: v29449, v29453, v29457 H4; v29449 L3
B3: v29454: "Representative humanized antibody variants ... of the mouse antibody" that specifically binds hNaPi2b (antibody, V domains shown)
VH: QVQLVQSGAEVKKPGASVKMSCKASGFTFTSYNVHWVRQAPGQGLEWIAAISPGNGDLSYAQKFQGRATLTVDTSTSTAYMELSSLRSEDTAVYYCARGRTGMGAVDYWGQGTLVTVSS
VL: DVQMTQSPSSLSASVGDRVTITCRASQDVYSYLNWYQQKPGKAVKLLIYYTSRLQSGVPSRFSGSGSGTDYTLTISSLQPEDFATYYCQQYNIFPWTFGQGTKLEIK
modifications: v29450, v29454, v29458 H3; v29453, v29454, v29455, v29456 L2
B4: v29457: "Representative humanized antibody variants ... of the mouse antibody" that specifically binds hNaPi2b (antibody, V domains shown)
VH: QVQLVQSGAEVKKPGASVKMSCKASGFTFTSYNVHWVRQAPGQGLEWIAAISPGNGDLSYAQKFQGRATLTVDRSTSTAYMELSSLRSEDTAVYYCARGRTGMGAVDYWGQGTLVTVSS
VL: DIQMTQSPSSLSASVGDRVTITCRASQDVYSYLNWYQQKPGKAPKLLIYYTSRLQSGVPSRFSGSGSGTDFTLTISSLQPEDFATYYCQQYNIFPWTFGQGTKLEIK
modifications: v29449, v29453, v29457 H4; v29457, v29458, v29459, v29460 L1
B5: v29455: "Representative humanized antibody variants ... of the mouse antibody" that specifically binds hNaPi2b (antibody, V domains shown)
VH: QVQLVQSGAEVKKPGASVKVSCKASGFTFTSYNVHWVRQAPGQGLEWIAAISPGNGDLSYAQKFQGRVTMTVDTSTSTVYMELSSLRSEDTAVYYCARGRTGMGAVDYWGQGTLVTVSS
VL: DVQMTQSPSSLSASVGDRVTITCRASQDVYSYLNWYQQKPGKAVKLLIYYTSRLQSGVPSRFSGSGSGTDYTLTISSLQPEDFATYYCQQYNIFPWTFGQGTKLEIK
modifications: v29451, v29455, v29459 H2; v29453, v29454, v29455, v29456 L2
B6: v29458: "Representative humanized antibody variants ... of the mouse antibody" that specifically binds hNaPi2b (antibody, V domains shown)
VH: QVQLVQSGAEVKKPGASVKMSCKASGFTFTSYNVHWVRQAPGQGLEWIAAISPGNGDLSYAQKFQGRATLTVDTSTSTAYMELSSLRSEDTAVYYCARGRTGMGAVDYWGQGTLVTVSS
VL: DIQMTQSPSSLSASVGDRVTITCRASQDVYSYLNWYQQKPGKAPKLLIYYTSRLQSGVPSRFSGSGSGTDFTLTISSLQPEDFATYYCQQYNIFPWTFGQGTKLEIK
modifications: v29450, v29454, v29458 H3; v29457, v29458, v29459, v29460 L1
B7: v29459: "Representative humanized antibody variants ... of the mouse antibody" that specifically binds hNaPi2b (antibody, V domains shown)
VH: QVQLVQSGAEVKKPGASVKVSCKASGFTFTSYNVHWVRQAPGQGLEWIAAISPGNGDLSYAQKFQGRVTMTVDTSTSTVYMELSSLRSEDTAVYYCARGRTGMGAVDYWGQGTLVTVSS
VL: DIQMTQSPSSLSASVGDRVTITCRASQDVYSYLNWYQQKPGKAPKLLIYYTSRLQSGVPSRFSGSGSGTDFTLTISSLQPEDFATYYCQQYNIFPWTFGQGTKLEIK
modifications: v29451, v29455, v29459 H2; v29457, v29458, v29459, v29460 L1
B8: v29460: "Representative humanized antibody variants ... of the mouse antibody" that specifically binds hNaPi2b (antibody, V domains shown)
VH: QVQLVQSGAEVKKPGASVKVSCKASGFTFTSYNVHWVRQAPGQGLEWMGAISPGNGDLSYAQKFQGRVTMTRDTSTSTVYMELSSLRSEDTAVYYCARGRTGMGAVDYWGQGTLVTVSS
VL: DIQMTQSPSSLSASVGDRVTITCRASQDVYSYLNWYQQKPGKAPKLLIYYTSRLQSGVPSRFSGSGSGTDFTLTISSLQPEDFATYYCQQYNIFPWTFGQGTKLEIK
modifications: v29452, v29460 H1; v29457, v29458, v29459, v29460 L1

experiment: Thermal stability by differential scanning calorimetry (DSC); assay type: physicochemical; conditions: 0.4 mg/mL in PBS
Protocol: The thermal stability of the humanized antibody variants was assessed by differential scanning calorimetry (DSC) as described below.
400 μL of purified samples primarily at concentrations of 0.4 mg/mL in PBS were used for DSC analysis with a VP-Capillary DSC (Malvern Panalytical Inc., Westborough, MA). At the start of each DSC run, 5 buffer blank injections were performed to stabilize the baseline, and a buffer injection was placed before each sample injection for referencing. Each sample was scanned from 20° C. to 100° C. at a 60° C./hr rate, with low feedback, 8 sec filter, 3 min pre-scan thermostat, and 70 psi nitrogen pressure. The resulting thermograms were referenced and analyzed using Origin 7 software (OriginLab Corporation, Northampton, MA) to determine melting temperature (Tm) as an indicator of thermal stability.

Going from B1 to B2, the “Fab Tm” value rises from 78.9 °C to 80.0 °C.

Compared with B3, B4 is higher in “Fab Tm” value: 79.7 °C for the first, 80.5 °C for the second.

Going from B5 to B6, the “Fab Tm” value rises from 81.5 °C to 81.6 °C.

Compared with B7, B8 is lower in “Fab Tm” value: 83.1 °C for the first, 80.3 °C for the second.
